Consider one substance from article PMC6179994.

This test concerns the target full-length rabbit TRPV5 (transient receptor potential vanilloid 5) (rabbit) (UniProt Q9XSM3). Nature of the test: cryo-EM structure; detergent solubilized TRPV5 (DMNG) incubated 1 h with 10 mM CaCl2 and rat CaM at 1:20 (TRPV5 tetramer:CaM), then SEC; map at 4.4 Å without applied symmetry.

full-length rabbit TRPV5 (transient receptor potential vanilloid 5) (rabbit), sequence (Q9XSM3 whole entry): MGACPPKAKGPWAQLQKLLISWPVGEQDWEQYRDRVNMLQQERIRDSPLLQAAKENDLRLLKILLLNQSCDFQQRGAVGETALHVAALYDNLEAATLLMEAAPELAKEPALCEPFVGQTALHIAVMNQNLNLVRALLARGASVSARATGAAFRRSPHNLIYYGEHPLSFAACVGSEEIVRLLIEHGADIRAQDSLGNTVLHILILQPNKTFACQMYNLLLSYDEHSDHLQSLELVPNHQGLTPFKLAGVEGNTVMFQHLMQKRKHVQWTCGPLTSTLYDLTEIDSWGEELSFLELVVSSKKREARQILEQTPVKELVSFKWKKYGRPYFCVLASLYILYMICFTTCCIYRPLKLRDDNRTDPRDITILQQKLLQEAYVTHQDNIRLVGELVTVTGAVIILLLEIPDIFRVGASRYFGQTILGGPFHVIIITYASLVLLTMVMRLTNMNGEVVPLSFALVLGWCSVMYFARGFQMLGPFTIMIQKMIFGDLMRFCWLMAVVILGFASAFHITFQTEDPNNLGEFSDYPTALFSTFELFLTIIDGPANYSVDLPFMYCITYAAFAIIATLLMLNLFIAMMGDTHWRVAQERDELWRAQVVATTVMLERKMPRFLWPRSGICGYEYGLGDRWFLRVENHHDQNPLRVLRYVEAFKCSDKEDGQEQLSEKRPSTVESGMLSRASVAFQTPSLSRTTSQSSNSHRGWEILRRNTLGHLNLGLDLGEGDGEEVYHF

In turn, “rat calmodulin (CaM), calcium-activated (from UniProt P0DP29 1-149) (natural protein)” displayed a stoichiometry N (CaM per TRPV5 tetramer) of 1.
